The results in this text go back to US20190077860A1 (EISAI R AND D MANAGEMENT, published 2019).

Common to all, as to experiment: ELISA
In general terms: ELISA stands for enzyme-linked immunosorbent assay.

The target of test [1] is T1, human EphA8 extracellular region-SEAP-His protein (human, UniProt P29322 28-542).
T1 construct: extracellular domain; also called hEphA8-SEAP-His
T1 sequence (looked up): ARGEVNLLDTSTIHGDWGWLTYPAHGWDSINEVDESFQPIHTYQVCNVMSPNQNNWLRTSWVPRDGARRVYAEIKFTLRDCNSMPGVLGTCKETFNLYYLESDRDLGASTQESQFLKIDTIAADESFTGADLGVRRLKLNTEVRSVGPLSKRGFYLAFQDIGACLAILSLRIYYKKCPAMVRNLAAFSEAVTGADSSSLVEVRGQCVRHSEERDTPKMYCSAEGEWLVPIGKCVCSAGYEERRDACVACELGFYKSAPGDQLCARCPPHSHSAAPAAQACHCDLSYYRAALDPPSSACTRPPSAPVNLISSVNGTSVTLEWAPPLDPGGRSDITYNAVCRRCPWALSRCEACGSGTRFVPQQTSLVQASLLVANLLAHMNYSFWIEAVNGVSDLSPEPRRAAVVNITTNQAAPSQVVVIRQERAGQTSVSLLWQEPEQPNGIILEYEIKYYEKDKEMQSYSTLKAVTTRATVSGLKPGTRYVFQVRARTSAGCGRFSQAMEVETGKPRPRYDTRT

The target in test [2] is T2, human EphA7 extracellular region-SEAP-His protein (human, UniProt Q15375 28-555).
T2 construct: extracellular domain; also called hEphA7-SEAP-His
T2 sequence (looked up): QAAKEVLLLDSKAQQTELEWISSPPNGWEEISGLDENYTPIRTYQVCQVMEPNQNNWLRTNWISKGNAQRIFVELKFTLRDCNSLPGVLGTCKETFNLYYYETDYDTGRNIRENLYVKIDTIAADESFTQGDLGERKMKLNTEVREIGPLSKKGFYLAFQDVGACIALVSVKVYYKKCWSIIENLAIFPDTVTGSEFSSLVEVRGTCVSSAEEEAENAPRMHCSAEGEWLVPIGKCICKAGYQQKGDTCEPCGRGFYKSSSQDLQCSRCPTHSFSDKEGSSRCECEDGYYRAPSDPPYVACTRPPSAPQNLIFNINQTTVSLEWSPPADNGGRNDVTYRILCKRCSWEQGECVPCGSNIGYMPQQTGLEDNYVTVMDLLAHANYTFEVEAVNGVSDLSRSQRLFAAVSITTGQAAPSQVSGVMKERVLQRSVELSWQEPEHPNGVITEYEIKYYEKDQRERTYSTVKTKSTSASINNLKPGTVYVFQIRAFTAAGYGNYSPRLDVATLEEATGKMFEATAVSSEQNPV

Test [3] concerns the target T3, human EphA5 extracellular region-SEAP-His protein (human, UniProt P54756 25-573).
T3 construct: extracellular domain; also called hEphA5-SEAP-His

Test [4] addresses T4, human EphB4 extracellular region-SEAP-His protein (human, UniProt P54760 16-539).
T4 construct: extracellular domain; also called hEphB4-SEAP-His
T4 sequence (looked up): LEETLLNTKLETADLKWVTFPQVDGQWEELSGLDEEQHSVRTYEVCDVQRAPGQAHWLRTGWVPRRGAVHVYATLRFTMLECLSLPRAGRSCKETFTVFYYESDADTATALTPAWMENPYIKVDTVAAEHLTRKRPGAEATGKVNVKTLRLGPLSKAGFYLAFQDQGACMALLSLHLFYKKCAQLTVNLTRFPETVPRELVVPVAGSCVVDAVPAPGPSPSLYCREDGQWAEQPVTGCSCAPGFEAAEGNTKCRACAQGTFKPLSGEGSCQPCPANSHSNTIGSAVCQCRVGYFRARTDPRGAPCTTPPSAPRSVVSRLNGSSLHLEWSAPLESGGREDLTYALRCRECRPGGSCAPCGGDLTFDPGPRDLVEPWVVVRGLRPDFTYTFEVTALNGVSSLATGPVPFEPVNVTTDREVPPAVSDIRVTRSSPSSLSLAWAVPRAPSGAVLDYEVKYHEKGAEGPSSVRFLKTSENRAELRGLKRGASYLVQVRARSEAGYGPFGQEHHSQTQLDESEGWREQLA

The target of test [5] is T5, human EphA3 extracellular region-SEAP-His protein (human, UniProt P29320 21-541).
T5 construct: extracellular domain; also called hEphA3-SEAP-His
T5 sequence (looked up): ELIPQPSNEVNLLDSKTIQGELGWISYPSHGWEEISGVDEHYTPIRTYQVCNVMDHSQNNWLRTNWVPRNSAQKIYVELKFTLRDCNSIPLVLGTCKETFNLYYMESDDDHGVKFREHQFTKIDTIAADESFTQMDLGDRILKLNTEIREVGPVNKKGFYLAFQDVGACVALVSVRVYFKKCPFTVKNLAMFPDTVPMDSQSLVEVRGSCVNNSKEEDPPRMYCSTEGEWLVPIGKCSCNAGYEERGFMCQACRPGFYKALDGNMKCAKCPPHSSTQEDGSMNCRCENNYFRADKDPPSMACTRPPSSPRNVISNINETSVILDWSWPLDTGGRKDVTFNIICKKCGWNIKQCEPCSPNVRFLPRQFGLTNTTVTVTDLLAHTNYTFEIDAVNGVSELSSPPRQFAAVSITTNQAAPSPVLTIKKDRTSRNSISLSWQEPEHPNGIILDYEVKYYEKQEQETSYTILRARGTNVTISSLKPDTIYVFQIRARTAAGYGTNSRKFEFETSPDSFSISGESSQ

The target of test [6] is T6, human EphA2 extracellular region-SEAP-His protein (human, UniProt P29317 24-537).
T6 construct: extracellular domain; also called hEphA2-SEAP-His
T6 sequence (P29317 24-537): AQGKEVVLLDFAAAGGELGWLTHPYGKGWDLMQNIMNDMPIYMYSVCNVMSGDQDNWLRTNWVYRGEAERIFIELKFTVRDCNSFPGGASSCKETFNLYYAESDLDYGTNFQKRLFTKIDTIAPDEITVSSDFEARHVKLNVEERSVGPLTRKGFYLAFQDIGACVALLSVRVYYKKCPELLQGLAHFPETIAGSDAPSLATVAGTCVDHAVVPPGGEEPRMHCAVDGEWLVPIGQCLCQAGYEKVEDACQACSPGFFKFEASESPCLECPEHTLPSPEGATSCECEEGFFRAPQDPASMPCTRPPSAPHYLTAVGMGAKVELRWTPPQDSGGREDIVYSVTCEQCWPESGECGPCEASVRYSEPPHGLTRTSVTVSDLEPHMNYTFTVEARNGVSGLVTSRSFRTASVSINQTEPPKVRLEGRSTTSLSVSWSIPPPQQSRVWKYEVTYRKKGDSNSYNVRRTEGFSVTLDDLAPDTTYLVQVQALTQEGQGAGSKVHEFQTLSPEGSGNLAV

T3 sequence (P54756 25-573): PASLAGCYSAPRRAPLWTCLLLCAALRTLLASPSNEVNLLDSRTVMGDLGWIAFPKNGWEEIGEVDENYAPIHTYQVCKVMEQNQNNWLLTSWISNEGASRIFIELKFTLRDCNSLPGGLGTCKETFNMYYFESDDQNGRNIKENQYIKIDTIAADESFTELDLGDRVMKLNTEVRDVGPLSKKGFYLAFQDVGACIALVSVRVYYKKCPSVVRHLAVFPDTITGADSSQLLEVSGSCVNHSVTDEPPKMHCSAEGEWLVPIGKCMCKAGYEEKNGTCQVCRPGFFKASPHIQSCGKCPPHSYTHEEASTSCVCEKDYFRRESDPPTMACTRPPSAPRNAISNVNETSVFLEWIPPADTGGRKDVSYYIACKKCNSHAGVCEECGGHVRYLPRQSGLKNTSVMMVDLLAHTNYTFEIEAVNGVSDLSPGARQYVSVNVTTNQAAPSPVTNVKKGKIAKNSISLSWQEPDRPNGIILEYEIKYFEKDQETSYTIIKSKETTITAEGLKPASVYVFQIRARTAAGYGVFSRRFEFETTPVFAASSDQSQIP

B1: humanized antibody No. 145 (antibody, human IgG2)
heavy: QVQLVQSGSELKKPGASVKVSCKASGYTFTDYSMHWVRQAPGQGLKWMGWINTETGEPTYADDFKGRFVFSLDTSVSTAYLQISSLKAEDTAVYYCARIPLYYYGSRYWYFDVWGQGTTVTVSSASTKGPSVFPLAPSSRSTSESTAALGCLVKDYFPEPVTVSWNSGALTSGVHTFPAVLQSSGLYSLSSVVTVPSSNFGTQTYTCNVDHKPSNTKVDKTVERKSCVECPPCPAPPAAAPSVFLFPPKPKDTLMISRTPEVTCVVVDVSHEDPEVQFNWYVDGVEVHNAKTKPREEQFNSTFRVVSVLTVVHQDWLNGKEYKCKVSNKGLPAPIEKTISKTKGQPREPQVYTLPPSREEMTKNQVSLTCLVKGFYPSDIAVEWESNGQPENNYKTTPPMLDSDGSFFLYSKLTVDKSRWQQGNVFSCSVMHEALHNHYTQKSLSLSPG
light: DIQMTQSPSSLSASVGDRVTITCRASENIYRNLAWYQQKPGKAPKLLLYAATNLADGVPSRFSGSGSGTDYTLTISSLQSEDFATYYCQHFWGTPWTFGQGTKVEIKRTVAAPSVFIFPPSDEQLKSGTASVVCLLNNFYPREAKVQWKVDNALQSGNSQESVTEQDSKDSTYSLSSTLTLSKADYEKHKVYACEVTHQGLSSPVTKSFNRGEC
notes: human Ig kappa; also called L1-5/HK2
For the molecule B1, the “A450 as % of hEphA4-SEAP-His” value in test [1] is 6.6%; in test [2], 6.3%; in test [3], 6.6%; in test [4], 6.7%; in test [5], 6.6%; in test [6], 6.5%.

B2: humanized antibody No. 152 (antibody, human IgG2)
heavy: QVQLVQSGSELKKPGASVKVSCKASGYTFTDYSMHWVRQAPGQGLEWMGWINTETGEPTYAQGFTGRFVFSLDTSVSTAYLQISSLKAEDTAVYYCARIPLYYYGSRYWYFDVWGQGTTVTVSSASTKGPSVFPLAPSSRSTSESTAALGCLVKDYFPEPVTVSWNSGALTSGVHTFPAVLQSSGLYSLSSVVTVPSSNFGTQTYTCNVDHKPSNTKVDKTVERKSCVECPPCPAPPAAAPSVFLFPPKPKDTLMISRTPEVTCVVVDVSHEDPEVQFNWYVDGVEVHNAKTKPREEQFNSTFRVVSVLTVVHQDWLNGKEYKCKVSNKGLPAPIEKTISKTKGQPREPQVYTLPPSREEMTKNQVSLTCLVKGFYPSDIAVEWESNGQPENNYKTTPPMLDSDGSFFLYSKLTVDKSRWQQGNVFSCSVMHEALHNHYTQKSLSLSPG
light: DIQMTQSPSSLSASVGDRVTITCRASENIYRNLAWYQQKPGKAPKLLLYAATNLADGVPSRFSGSGSGTDYTLTISSLQSEDFATYYCQHFWGTPWTFGQGTKVEIKRTVAAPSVFIFPPSDEQLKSGTASVVCLLNNFYPREAKVQWKVDNALQSGNSQESVTEQDSKDSTYSLSSTLTLSKADYEKHKVYACEVTHQGLSSPVTKSFNRGEC
notes: human Ig kappa; also called L1-5/HA1
Regarding B2, the “A450 as % of hEphA4-SEAP-His” value in test [1] was determined as 6%; in test [2], 5.7%; in test [3] it was 5.8%; in test [4], 5.9%; in test [5], 5.8%; in test [6], 5.8%.

B3: humanized antibody No. 153 (antibody, human IgG2)
heavy: QVQLVQSGSELKKPGASVKVSCKASGYTFTDYSMHWVRQAPGQGLKWMGWINTETGEPTYAQGFTGRFVFSLDTSVSTAYLQISSLKAEDTAVYYCARIPLYYYGSRYWYFDVWGQGTTVTVSSASTKGPSVFPLAPSSRSTSESTAALGCLVKDYFPEPVTVSWNSGALTSGVHTFPAVLQSSGLYSLSSVVTVPSSNFGTQTYTCNVDHKPSNTKVDKTVERKSCVECPPCPAPPAAAPSVFLFPPKPKDTLMISRTPEVTCVVVDVSHEDPEVQFNWYVDGVEVHNAKTKPREEQFNSTFRVVSVLTVVHQDWLNGKEYKCKVSNKGLPAPIEKTISKTKGQPREPQVYTLPPSREEMTKNQVSLTCLVKGFYPSDIAVEWESNGQPENNYKTTPPMLDSDGSFFLYSKLTVDKSRWQQGNVFSCSVMHEALHNHYTQKSLSLSPG
light: DIQMTQSPSSLSASVGDRVTITCRASENIYRNLAWYQQKPGKAPKLLLYAATNLADGVPSRFSGSGSGTDYTLTISSLQSEDFATYYCQHFWGTPWTFGQGTKVEIKRTVAAPSVFIFPPSDEQLKSGTASVVCLLNNFYPREAKVQWKVDNALQSGNSQESVTEQDSKDSTYSLSSTLTLSKADYEKHKVYACEVTHQGLSSPVTKSFNRGEC
notes: human Ig kappa; also called L1-5/HA2
In the case of B3, the “A450 as % of hEphA4-SEAP-His” value in test [1] amounted to 6.1%; in test [2], 6.2%; in test [3], 6.1%; in test [4], 6%; in test [5], 6.1%; in test [6] it was 6%.

B4: humanized antibody No. 151 (antibody, human IgG2)
heavy: QIQLVQSGSELKKPGASVKVSCKASGYTFTDYSMHWVRQAPGQGLKWMGWINTETGEPTYAQGFTGRFVFSLDTSVSTAYLQISSLKAEDTAVYYCARIPLYYYGSRYWYFDVWGQGTTVTVSSASTKGPSVFPLAPSSRSTSESTAALGCLVKDYFPEPVTVSWNSGALTSGVHTFPAVLQSSGLYSLSSVVTVPSSNFGTQTYTCNVDHKPSNTKVDKTVERKSCVECPPCPAPPAAAPSVFLFPPKPKDTLMISRTPEVTCVVVDVSHEDPEVQFNWYVDGVEVHNAKTKPREEQFNSTFRVVSVLTVVHQDWLNGKEYKCKVSNKGLPAPIEKTISKTKGQPREPQVYTLPPSREEMTKNQVSLTCLVKGFYPSDIAVEWESNGQPENNYKTTPPMLDSDGSFFLYSKLTVDKSRWQQGNVFSCSVMHEALHNHYTQKSLSLSPG
light: DIQMTQSPSSLSASVGDRVTITCRASENIYRNLAWYQQKPGKAPKLLLYAATNLADGVPSRFSGSGSGTDYTLTISSLQSEDFATYYCQHFWGTPWTFGQGTKVEIKRTVAAPSVFIFPPSDEQLKSGTASVVCLLNNFYPREAKVQWKVDNALQSGNSQESVTEQDSKDSTYSLSSTLTLSKADYEKHKVYACEVTHQGLSSPVTKSFNRGEC
notes: human Ig kappa; also called L1-5/HA4
Turning to B4, the “A450 as % of hEphA4-SEAP-His” value came out at 6.9% in test [1]; 6.8% in test [2]; 7% in test [3]; 7.4% in test [4]; 6.9% in test [5]; 6.9% in test [6].
